T1: Y1 receptor-Gc (rat Y1 receptor fused at the C terminus to sfGFP fragment 155-238) (rat, UniProt P21555 1-382)
T1 construct: neuropeptide Y receptor type 1, rat; cDNA transferred to the pCMV FLAG vector for transfection; also called Y1-Gc; receptor of the Y1 A1, Y1 A2 and Y1 A2Δ cell lines; source: HEK293T, stably transfected into β-arrestin-Gn clonal lines; live or fixed cells, or membranes
T1 sequence (looked up): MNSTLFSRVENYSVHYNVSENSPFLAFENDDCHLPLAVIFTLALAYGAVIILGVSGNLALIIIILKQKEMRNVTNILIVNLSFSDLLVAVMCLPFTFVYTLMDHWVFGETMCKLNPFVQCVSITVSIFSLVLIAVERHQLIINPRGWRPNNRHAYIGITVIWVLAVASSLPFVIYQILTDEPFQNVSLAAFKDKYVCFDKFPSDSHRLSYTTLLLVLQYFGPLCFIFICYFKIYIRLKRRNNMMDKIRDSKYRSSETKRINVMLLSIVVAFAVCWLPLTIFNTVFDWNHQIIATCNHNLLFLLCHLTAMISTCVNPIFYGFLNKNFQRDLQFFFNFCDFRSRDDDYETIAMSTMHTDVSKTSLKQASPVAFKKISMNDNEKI

T2: Y1 6A receptor-Gc (rat, UniProt P21555 1-382, S352A | T353A | T356A | S359A | T361A | S362A)
T2 construct: neuropeptide Y receptor type 1, rat, with six C tail serine/threonine residues changed to alanine; also called Y16A-Gc; receptor of the Y16A A1 and Y16A A2 cell lines; source: HEK293 cells stably co-expressing β-arrestin-Gn; live cells or membranes
T2 sequence (looked up): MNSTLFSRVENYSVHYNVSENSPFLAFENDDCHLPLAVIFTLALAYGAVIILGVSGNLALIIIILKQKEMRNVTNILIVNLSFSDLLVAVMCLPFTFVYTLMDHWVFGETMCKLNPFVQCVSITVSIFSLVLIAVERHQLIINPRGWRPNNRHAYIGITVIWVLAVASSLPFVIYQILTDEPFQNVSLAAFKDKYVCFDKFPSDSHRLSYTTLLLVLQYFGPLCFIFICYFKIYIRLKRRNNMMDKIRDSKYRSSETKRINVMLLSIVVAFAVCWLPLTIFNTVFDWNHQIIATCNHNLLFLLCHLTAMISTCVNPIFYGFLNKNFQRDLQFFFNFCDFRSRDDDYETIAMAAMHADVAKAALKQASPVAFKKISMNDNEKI

T3: Y1 receptor-sfGFP (rat NPY Y1 receptor, N-terminal FLAG, C-terminal superfolder GFP) (rat, UniProt P21555 1-382)
T3 construct: neuropeptide Y receptor type 1, rat; sfGFP here is enhanced GFP with S30R, Y39N, M153T and V163A (wild type GFP numbering), lacking the start Met; linker LRPLE between receptor C terminus and sfGFP; also called Y1sfGFP; Y1-sfGFP; source: membranes or live cells; not shown: sfGFP via linker LRPLE, C-terminal, kept
T3 sequence (looked up): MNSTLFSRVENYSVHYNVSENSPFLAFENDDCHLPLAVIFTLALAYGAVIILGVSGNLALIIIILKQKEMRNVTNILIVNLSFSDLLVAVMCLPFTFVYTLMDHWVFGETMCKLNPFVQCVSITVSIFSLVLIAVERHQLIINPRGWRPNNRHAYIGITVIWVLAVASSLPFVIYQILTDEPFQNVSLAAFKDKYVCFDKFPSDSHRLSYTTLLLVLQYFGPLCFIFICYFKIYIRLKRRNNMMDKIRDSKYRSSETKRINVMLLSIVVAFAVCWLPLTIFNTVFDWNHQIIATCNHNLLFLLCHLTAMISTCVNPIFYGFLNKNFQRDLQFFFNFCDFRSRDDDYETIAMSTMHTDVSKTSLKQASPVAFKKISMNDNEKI

T4: Y1 6A receptor-sfGFP (rat, UniProt P21555 1-382, S352A | T353A | T356A | S359A | T361A | S362A)
T4 construct: neuropeptide Y receptor type 1, rat, with six C tail serine/threonine residues changed to alanine; also called Y16AsfGFP; source: membranes or live cells; not shown: sfGFP via linker LRPLE, C-terminal, kept
T4 sequence (looked up): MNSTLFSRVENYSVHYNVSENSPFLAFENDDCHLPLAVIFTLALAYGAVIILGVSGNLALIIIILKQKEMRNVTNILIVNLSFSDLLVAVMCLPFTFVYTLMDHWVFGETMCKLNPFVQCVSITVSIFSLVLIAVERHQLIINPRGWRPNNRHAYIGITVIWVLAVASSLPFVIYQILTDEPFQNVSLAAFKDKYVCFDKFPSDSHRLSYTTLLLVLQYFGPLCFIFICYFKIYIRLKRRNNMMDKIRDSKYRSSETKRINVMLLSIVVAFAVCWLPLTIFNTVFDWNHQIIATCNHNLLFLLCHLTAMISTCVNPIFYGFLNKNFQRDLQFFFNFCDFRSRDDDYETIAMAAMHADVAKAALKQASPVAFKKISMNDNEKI


Assays:
[1] = target: T1, Y1 receptor-Gc (rat Y1 receptor fused …); assay: radioligand binding; as a1 but on membranes of HEK293T BiFC cell lines co-expressing β-arrestin1-Gn (Y1 A1, Y16A A1); 16 pM [125I]PYY; conditions: one partner purified
Y1 6A receptor-Gc [2] = target: T2, Y1 6A receptor-Gc; assay: as above; conditions: one partner purified
[3] = target: T1, Y1 receptor-Gc (rat Y1 receptor fused …); assay: radioligand binding; as a1 but on membranes of the HEK293T BiFC cell line co-expressing β-arrestin2 ΔLIEFD-Gn (Y1 A2Δ); 16 pM [125I]PYY; conditions: one partner purified
[4] = target: T3, Y1 receptor-sfGFP (rat NPY Y1 receptor, …); assay: radioligand binding; competition with [125I]PYY (16 pM for Y1, 10 pM for Y2 receptors) on membranes of tetracycline-induced 293TR Y receptor-sfGFP cell lines; 90 min at 21 °C; 25 mM HEPES, 2.5 mM CaCl2, 1.0 mM MgCl2, 0.1% BSA, 0.1 mg/ml bacitracin, pH 7.4; IC50 converted to pKi by the Cheng-Prusoff equation; conditions: one partner purified
Y1 6A receptor-sfGFP = target: T4, Y1 6A receptor-sfGFP; assay: as above; conditions: one partner purified
[5] = target: T1, Y1 receptor-Gc (rat Y1 receptor fused …); assay: radioligand binding; as a1 but on membranes of HEK293T BiFC cell lines co-expressing β-arrestin2-Gn (Y1 A2, Y16A A2); 16 pM [125I]PYY; conditions: one partner purified
Y1 6A receptor-Gc [6] = target: T2, Y1 6A receptor-Gc; assay: as above; conditions: one partner purified
[7] = target: T1, Y1 receptor-Gc (rat Y1 receptor fused …); assay: split reporter (BiFC, NanoBiT); sfGFP BiFC in stable HEK293 cells in 96 well plates, NPY 0.1 nM-3 μM for 60 min at 37 °C, fixed, confocal platereader images quantified by granularity analysis (average granule intensity/cell); conditions: partners not purified

pKi [1] | pKi (Y1 6A receptor-Gc [2]) | pKi [3] | pKi [4] | pKi (Y1 6A receptor-sfGFP) | pKi [5] | pKi (Y1 6A receptor-Gc [6]) | pEC50 of NPY in stimulating the BiFC response (β-arrestin recruitment) [7] | Binder
9.45 | 9.3 | 9.44 | 9.5 | 9.22 | 9.54 | 9.48 | – | peptide YY (PYY), unlabelled (neither species nor supplier is stated; surmised) peptide: not shown
– | – | – | – | – | – | – | 8.3 | β-arrestin1-Gn (human β-arrestin1 fused at the C terminus to sfGFP fragment 2-172) (natural protein, UniProt P49407 1-418, looked up, β-arrestin1, human, full length with the stop codon removed; The keyword list gives Gn as sfGFP 2-173, the methods as 2-172; also called A1; not shown: Gn (sfGFP fragment 2-172) via linker QRPLE, C-terminal, kept) MGDKGTRVFKKASPNGKLTVYLGKRDFVDHIDLVDPVDGVVLVDPEYLKERRVYVTLTCAFRYGREDLDVLGLTFRKDLFVANVQSFPPAPEDKKPLTRLQERLIKKLGEHAYPFTFEIPPNLPCSVTLQPGPEDTGKACGVDYEVKAFCAENLEEKIHKRNSVRLVIRKVQYAPERPGPQPTAETTRQFLMSDKPLHLEASLDKEIYYHGEPISVNVHVTNNTNKTVKKIKISVRQYADICLFNTAQYKCPVAMEEADDTVAPSSTFCKVYTLTPFLANNREKRGLALDGKLKHEDTNLASSTLLREGANREILGIIVSYKVKVKLVVSRGGLLGDLASSDVAVELPFTLMHPKPKEEPPHREVPENETPVDTNLIELDTNDDDIVFEDFARQRLKGMKDDKEEEEDGTGSPQLNNR

From paper PMC3793875, “Fluorescence correlation spectroscopy, combined with bimolecular fluorescence complementation, reveals the effects of β-arrestin complexes and endocytic targeting on the membrane mobility of neuropeptide Y receptors” (Biochimica et Biophysica Acta, 2012)
